Our source for the Kd values is paper PMC12329532 (2025).

Common to all, as to test: FP
The target of assay [1] is N-terminally His6-tagged human IDO1 (indoleamine 2,3-dioxygenase 1), purified apo-IDO1 (human, UniProt P14902 1-403, Alexa Fluor 488 on Cys groups (in the fluorescence polarisation assay only)).
The target in assay [2] is His6-IDO1 K101D, purified (human, UniProt P14902 1-403, K101D, Alexa Fluor 488 on Cys groups).
In assay [3] the target is His6-IDO1 K101A, purified (human, UniProt P14902 1-403, K101A, Alexa Fluor 488 on Cys groups).

Sequence of N-terminally His6-tagged human IDO1 (indoleamine 2,3-dioxygenase 1), purified apo-IDO1 (P14902 whole entry): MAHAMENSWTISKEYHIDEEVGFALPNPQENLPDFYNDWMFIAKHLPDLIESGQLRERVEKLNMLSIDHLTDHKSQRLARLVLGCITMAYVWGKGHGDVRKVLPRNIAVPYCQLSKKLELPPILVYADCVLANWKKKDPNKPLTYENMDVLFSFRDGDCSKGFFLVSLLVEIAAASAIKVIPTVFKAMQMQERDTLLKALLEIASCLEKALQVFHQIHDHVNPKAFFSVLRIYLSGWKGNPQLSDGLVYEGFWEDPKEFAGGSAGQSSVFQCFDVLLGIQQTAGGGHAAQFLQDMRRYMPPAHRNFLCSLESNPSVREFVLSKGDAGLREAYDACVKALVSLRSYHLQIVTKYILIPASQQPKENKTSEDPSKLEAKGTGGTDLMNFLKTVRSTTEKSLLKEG

B1: human recombinant TC-GAPDH (GAPDH with a tetra-Cys insertion sequence near its heme binding site), wild type, purified (enzyme)
chain: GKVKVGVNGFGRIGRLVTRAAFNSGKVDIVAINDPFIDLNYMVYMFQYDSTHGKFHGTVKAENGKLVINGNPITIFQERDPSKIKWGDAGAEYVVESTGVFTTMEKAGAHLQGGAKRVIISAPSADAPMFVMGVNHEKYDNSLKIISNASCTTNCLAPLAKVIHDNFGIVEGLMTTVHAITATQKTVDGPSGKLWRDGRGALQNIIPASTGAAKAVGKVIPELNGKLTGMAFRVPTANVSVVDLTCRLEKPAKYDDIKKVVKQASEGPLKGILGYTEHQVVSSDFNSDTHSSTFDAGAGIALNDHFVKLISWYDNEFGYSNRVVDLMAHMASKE
For B1, the Kd in assay [1] is 1.79 µM; in assay [2], 4.45 µM; in assay [3], 4.66 µM.
